The target in the assay is T1, Human CD155 protein (Human CD155), expressed on cells (human, UniProt P15151 21-417).
T1 construct: also called CHO-K1-human CD155; CHO-K1-CD155
T1 sequence: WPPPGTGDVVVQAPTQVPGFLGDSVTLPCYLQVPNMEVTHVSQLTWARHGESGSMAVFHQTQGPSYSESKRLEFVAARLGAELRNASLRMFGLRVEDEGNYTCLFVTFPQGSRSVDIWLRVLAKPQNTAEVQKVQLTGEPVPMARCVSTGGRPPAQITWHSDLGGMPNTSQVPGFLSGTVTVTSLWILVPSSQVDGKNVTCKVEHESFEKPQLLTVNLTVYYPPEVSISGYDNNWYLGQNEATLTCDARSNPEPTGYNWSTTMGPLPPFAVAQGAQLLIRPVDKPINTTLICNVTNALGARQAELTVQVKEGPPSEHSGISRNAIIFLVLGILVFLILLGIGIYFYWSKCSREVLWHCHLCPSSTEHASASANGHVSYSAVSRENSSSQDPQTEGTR
Description: flow cytometry on CHO-K1-human CD155 cells. For orientation: A flow cytometer gives signals particle by particle.

Numbering of substitutions follows the chain as printed.

B1: human-mouse chimeric antibody mutgi1005-hIgG4 (antibody)
heavy: not shown
light: QAVVTQESALTTSPGETVTLTCRSSTGAVTTSNYANWVQEKPDHLFTGLIGGTNNRAPGVPARFSGSLIGDKAALTITGAQTEDEAIYFCALWYSNHFVFGGGTKLTVLGQPKAAPSVTLFPPSSEELQANKATLVCLISDFYPGAVTVAWKADSSPVKAGVETTTPSKQSNNKYAASSYLSLTPEQWKSHRSYSCQVTHEGSTVEKTVAPTECS
notes: Murine variable regions fused with wild-type human IgG4 and lambda constant regions; also called mutgi1005-hlgG4; chimeric CD155 antibody
On to B1, for which the binding result is “binds”.

B2: human-mouse chimeric antibody mutgi1005-hIgG1 (antibody)
heavy: not shown
light: B1 light
notes: Murine variable regions fused with wild-type human IgG1 and lambda constant regions; also called chimeric CD155 antibody
Turning to B2, the binding result is listed as “binds”.

B3: affinity-matured humanized antibody V21 (tgi1005 V21-hIgG1/4) (antibody, V domains shown)
VH: QVQLVQSGAEVKKPGASVKVSCKASGYTFTSSYISWVRQAPGQGLEWIAWIYAGTGDTNYNQKFTGRVTMTTDTSTSTAYMELRSLRSDDTAVYYCARHGYTGRGWYFAVWGQGTTVTVSS
VL: QAVVTQEPSLTVSPGGTVTLTCRSSTGAVTTSNYANWVQQKPGQAFRGLIGGTNNRAPGVPARFSGSLLGDKAALTLSGAQPEDEAEYYCILWYSNHFVFGGGTKLTVL
As to B3, the binding result is given as “binds”.

B4: affinity-matured humanized antibody V40 (tgi1005 V40-hIgG1/4) (antibody, V domains shown)
VH: B3 VH with Y101M
VL: B3 VL with Y34L, G52H, H97K
Regarding B4, the binding result is “binds”.

B5: affinity-matured humanized antibody V28 (tgi1005 V28-hIgG1/4/1LALA) (antibody, V domains shown)
VH: B3 VH with Y101L, G105H
VL: B3 VL with Y34I, A57G, H97K
Take B5: the binding result is “binds”.

B6: affinity-matured humanized antibody V20 (tgi1005 V20-hIgG1/4/1LALA) (antibody, V domains shown)
VH: B3 VH
VL: B3 VL with Y34L, G52H, I91A, H97K
B6: the binding result was “binds”.

B7: murine CD155 antibody (mutgi1005) (antibody, mouse IgG2a)
heavy: QVQMQQSGAELVKPGASVKLSCKTSGFTFSSSYISWLKQKPGQSLEWIAWIYAGTGDTNYNQKFTGKAQVTVDTSSSTAYMQFSSLTTEDSAIYYCVRHGSTGRGWYFAVWGAGTTVTVSSAKTTAPSVYPLAPVCGDTTGSSVTLGCLVKGYFPEPVTLTWNSGSLSSGVHTFPAVLQSDLYTLSSSVTVTSSTWPSQSITCNVAHPASSTKVDKKIEPRGPTIKPCPPCKCPAPNLLGGPSVFIFPPKIKDVLMISLSPIVTCVVVDVSEDDPDVQISWFVNNVEVHTAQTQTHREDYNSTLRVVSALPIQHQDWMSGKEFKCKVNNKDLPAPIERTISKPKGSVRAPQVYVLPPPEEEMTKKQVTLTCMVTDFMPEDIYVEWTNNGKTELNYKNTEPVLDSDGSYFMYSKLRVEKKNWVERNSYSCSVVHEGLHNHHTTKSFSRTPGK
light: QAVVTQESALTTSPGETVTLTCRSSTGAVTTSNYANWVQEKPDHLFTGLIGGTNNRAPGVPARFSGSLIGDKAALTITGAQTEDEAIYFCALWYSNHFVFGGGTKLTVLQPKSSPSVTLFPPSSEELETNKATLVCTITDFYPGVVTVDWKVDGTPVTQGMETTQPSKQSNNKYMASSYLTLTARAWERHSSYSCQVTHEGHTVEKSLSRADCS
notes: also called murine monoclonal antibody; murine antibody
Take B7: the binding result was “binds”.

These data come from patent publication US20250333534A1 (HEFEI TG IMMUNOPHARMA, published 2025).
